Source: patent US20090117169A1

Legend:
Test in all cases: cell-based or functional assay
Myc-tagged β-catenin = biological target: Myc-tagged β-catenin
[1] = biological target: endogenous β-catenin in rat vascular smooth muscle cells (RASMCs, A7r5) (rat) (UniProt Q9WU82)
[2] = biological target: endogenous β-catenin in mouse aortic smooth muscle cells (MASMCs) (mouse) (UniProt Q02248)

Sequence of UniProt Q9WU82 (Q9WU82 2-781): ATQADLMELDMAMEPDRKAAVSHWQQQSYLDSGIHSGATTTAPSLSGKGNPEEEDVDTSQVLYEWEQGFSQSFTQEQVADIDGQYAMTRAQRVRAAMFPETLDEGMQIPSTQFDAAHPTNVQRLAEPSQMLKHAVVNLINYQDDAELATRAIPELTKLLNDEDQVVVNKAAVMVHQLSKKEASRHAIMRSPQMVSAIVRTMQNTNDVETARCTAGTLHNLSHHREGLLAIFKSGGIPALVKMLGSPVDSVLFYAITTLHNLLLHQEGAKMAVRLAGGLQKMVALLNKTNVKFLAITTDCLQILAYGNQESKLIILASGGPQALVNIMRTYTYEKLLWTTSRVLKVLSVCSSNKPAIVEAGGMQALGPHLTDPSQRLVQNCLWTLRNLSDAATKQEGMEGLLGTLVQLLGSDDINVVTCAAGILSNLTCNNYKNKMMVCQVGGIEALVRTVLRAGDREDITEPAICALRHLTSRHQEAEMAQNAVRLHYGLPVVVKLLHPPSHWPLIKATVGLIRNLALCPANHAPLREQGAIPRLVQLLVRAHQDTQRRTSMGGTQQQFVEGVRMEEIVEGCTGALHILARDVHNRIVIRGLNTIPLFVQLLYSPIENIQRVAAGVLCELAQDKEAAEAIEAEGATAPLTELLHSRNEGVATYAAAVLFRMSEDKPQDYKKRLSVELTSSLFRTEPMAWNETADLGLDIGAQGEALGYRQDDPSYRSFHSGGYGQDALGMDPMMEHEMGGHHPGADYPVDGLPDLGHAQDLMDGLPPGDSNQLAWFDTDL

inhibition of β-catenin activation of Topflash (TCF-luciferase reporter) in A7r5 cells (Myc-tagged β-catenin) [%] | nuclear β-catenin/lamin A/C ratio in fractionated, LiCl-treated A7r5 cells [1] | LiCl-stimulated TCF/β-catenin transcriptional activation (Topflash) in MASMCs after Fat1 knockdown (% higher than control siRNA) [2] | Substance
55 | – | – | FLAG-tagged N-cadherin (receptor)
40 | 0.8 | – | IL2R-Fat1IC (from UniProt P01589 22-259)
– | – | 30 | endogenous Fat1 in mouse aortic smooth muscle cells (MASMCs)
